Measured values taken from the DeepSol protein solubility set.

assay: soluble on expression in E. coli; label from the status in PepcDB or PDB records

Sequence | soluble on expression in E. coli
MAHHHHHHMLVSERAQPVRLFNCLLLRAHKDDESDGAACALHKNAASTSPTTDPIAAATAVGATRLYFTEGGPSSSLTALQRYLKVEEAHTTCPLLRVLQLAPQAPTGNMQPLVYVELDTPNAVSLSDDAQGRREAVLTTCSGVCTQETMPSRWYHAPVKATLCVFQEFMRAPTTSAASEPAFWAFLESVVRYHARDFYCGAVQVELQCVFVPTFEEKQNTAYSVDVFGDYVNEKEGQAQQSSPAAGKGRTAMKICVKSTEAFEHVMAYLKTQCPLLEADFRSSHLVVYAKWSSQLSAVRDSSHSQPPAADATGAVEQAACFVWLQDDAGGGGRDGVYADAALEALLDELTLAAASISTPSRAAAVLQEEGVSSFFEACCLTHTLKRVIRKHFQAVVLRQRPLFHWVISLPPYARLSRSTTSAAVTAMRFRDNAAVSRAVWGATQMLVHWQQLSNSAHALANEALKQSFGRGSGPSRQIVSAPARVPRQRRAIQQSALYGDTFSGGSALDRQRGKVNVPHLYGADEGHDASISLSSAQRGSVMAASGLFHNLRSIKEDSFNNTSVLDAEDVFGSNPKLTTRVVKRLAQSRTSVHTAQ | not soluble
MKKYFLGDQPTTLDASAFGFLINTIACPIESPLKEYGLSKENLGDYIDRIKMQYYPDLQLEHHHHHH | not soluble
MGSDKIHHHHHHMLQQRIQSLEEQEHLPSLLSADAQELAHQLQEHQKKIFSPSAQKTMRLFSPAEAAAFIGIGEGYLRQIASEGHGPQPLSNGRRMYAMEDIDRIRRVLDEGSKTGKYIPHRRPGEKLQVVSVMNFKGGSGKTTTSAHLAQYLALRGYRVLAIDLDPQASLSALFGHQPELDVGEGETLYGAIRYEAPRPIAEVVRSTYTANLHLIPGNLELMEFEHETPKAMIAGSTETMFFARIGEVLSEIESFYDIVVIDCPPQLGFLTMSALCAATSVLITVHPQMLDVMSMSQFLSMTSELMAVVENAGGRTSYDWMRYLVTRFEPNDGPQSQMTGFMRAIFGNRMLQNAMVKSTAISDAGVTKQTLYEVERSQFIRGTYDRAMDSLSLVNAEIEEMIRRVWGRK | not soluble
RDHRKIGKQLDLYHMQEEAPGMVFWHNDGWTIFRELEVFVRSKLKEYQYQEVKGPFMMDRVLWEKTGHWDNYKDAMFTTSSENREYCIKPMNCPGHVQIFNQGLKSYRDLPLRMAEFGSCHRNEPSGSLHGLMRVRGFTQDDAHIFCTEEQIRDEVNGCIRLVYDMYSTFGFEKIVVKLSTRPEKRIGSDEMWDRAEADLAVALEENNIPFEYQLGEGAFYGPKIEFTLYDCLDRAWQCGTVQLDFSLPSRLSASYVGEDNERKVPVMIHRAILGSMERFIGILTEEFAGFFPTWLAPVQVVIMNITDSQSEYVNELTQKLSNAGIRVKADLRNEKIGFKIREHTLRRVPYMLVCGDKEVESGKVAVRTRRGKDLGSMDVNEVIEKLQQEIRSRSLKQLEE | soluble
MSATSATNFAVQTHPVKAPDEEYFFEGAEKLLELWFCSSTQNETRSLRIIPREEIDAMLDIARCKILHSKHNESIDSYVLSESSLFISDNRVILKTCGTTRLLAALPVIMQLAGAYAGLDQVQSVYYSRKNFLRPDLQPSLHKNFDAEVEYLDSFFVDGHAYCLGSLKQDRWYLYTFHREVEFPAHKQPDHTLEILMSDLDEEVLHKFTKDYAVDGNDCFMRAGIDKIIPAGADVHDELFDPCGYSMNAYMNDTDQYATIHVTPEKAFSFASFETNQDLVCLYSQTRKVLQCFRPNKILMTVFANDISEKGKDAQQQLWDRELPGYRRTNVQFVRLETETLVYAHFVRKASTGQDSSSSDEDDGERSD | not soluble
MQRTLGEIMKIYFATGNPNKIKEANIILKDLKDVEIEQIKISYPEIQGTLEEVAEFGAKWVYNILKKPVIVEDSGFFVEALNGFPGTYSKFVQETIGNEGILKLLEGKDNRNAYFKTVIGYCDENGVRLFKGIVKGRVSEEIRSKGYGFAYDSIFIPEEEERTFAEMTTEEKSQISHRKKAFEEFKKFLLDRI | soluble
MKFLTTNFLKCSVKACDTSNDNFPLQYDGSKCQLVQDESIEFNPEFLLNIVDRVDWPAVLTVAAELGNNALPPTKPSFPSSIQELTDDDMAILNDLHTLLLQTSIAEGEMKCRNCGHIYYIKNGIPNLLLPPHLV | not soluble
MGHHHHHHSHIKKNNHHEENISSKMKGLNGKVSDLEKAAAQRKAKLDENSAFLQFNWKADVVESWIGEKENSLKTDDYGRDLSSVQTLLTKQETFDAGLQAFQQEGIANITALKDQLLAAKHVQSKAIEARHASLMKRWSQLLANSAARKKKLLEAQSHFRKVEDLFLTFAKKASAFNSWFENAEEDLTDPVRCNSLEEIKALREAHDAFRSSLSSAQADFNQLAELDRQIKSFRVASNPYT | not soluble
MSLASIVSVSSYPPPYLLKQETTTEFAKELFQEDFRDIERLLKSFSNGQIEERQFAVPLDWFRQDHSLQEKNDTYIKLATMFSVEVVRQCLQSNVFLKKPVAEEEIDTIVFVSSSGMATPSIEARMMNELPFSPHTKRVPMWGLGCAGGAAGMSRAYEYCRAFPRANVLVVCVELCSLTFQRQDRTKSNLIGASLFSDGVACALVSGDESDVLGRMKMPTRPLILGSSSTLMPDSEQVMGWDVKDTGLHVVFSRDIPNIIRHWLRPNVERFLETYRLSLEQIEAFIAHPGGRKVLEAYEEALSFSDEMTEYSRDILRHHGNMSSPTVLYVLEKFMKDTRDPGQYGLMAALGPGFCSELVLMQWEAVHEGHHHHHH | soluble
MGSDKIHHHHHHVVRKINFMNLIELLKKIKRKILAQMFNLNYRPYTHTTVIFESFGGRQISDSPLAIYKELKKTHPEYRLIWVVNKGLATQAEKNGYDYVIRGSFKWVRTIEKAQVWVENARLPQWVRKPDHIKLIQTWHGTPLKKLGLDIKNVVMPGTNTERYHQNFVREANRWDVLISPNTYSTNIFRQAFGYQNKIVEIGYPRNDKLANPTKEEIKLLKQKLGIPLDKKVIMYAPTYRDNQFFQKGKYSFELPFSLKEFQERFGSNAVLLLRMHYLIANSMDISGFEDFAYDVSSYADISELYLVSDLLITDYSSVFFDYAYLKRPILFYPYDYEIYKDELRGFYLDYQKDLPGKIAYNSVDLYDEIENELKENDISNNQQFEMFYKRFCGLNAGNASKRIVEEIERNL | not soluble
MSLSRIRKAPAGILGFPVAPFNTQGTLEEEALFQNIEFLLNEGLEAIFIACGSGEFQSLSQKEYEQMVEVAVSAAGGKVPVYTGVGGNLSTALDWAQLSEKKGADGYLILPPYLVHGEQEGLYQYAKTIIESTDLNAILYQRDNAVLSVEQIKRLTECEQLVGVKDGVGNMDLNINLVYTIGDRLGWLNGMPMAEVTMPAYLPIGFHSYSSAISNYIPHISRMFYDALKNGNDELVKELYRHVILPINDIRKQRKGYAVSLIKAGMEIMGLNVRNTARPPVGPVEKDHYQQLEAILKQPADRFPKKEGHHHHHH | soluble
MAISNILPRKIMKNRTRQQSMAERHDYDQKEEKTDGGELVSSYMCSPETAAEEFEISKKLYAQLTGRSQSEKHDIIMYRIIQSFKPDEVSPEEAHKIGCELAMKFTGGQHQFVVATHTDKRHIHTHIEFNSTNLNCDAKFQNVKNSAFILRRMNDELCRAHGLSVIENPKKKARPQKEMAAAQYGVSHKKQLQQAIDRLLPECNHYEEFLAKMRAEGYEVVDGKNPGFRLPGWDRPTRVNRLGDDYTKTALRARITSQRRRLTSGKTAPKRTGRKVNLLIDIQAKLAAGKGAGYERWAKIFNLKEAAKTLNFLIENNLTDYDELALRAEQAENGFNAVSQKIKQLEARMAGIAQLKTHIIQYSKTREVYAAYKKSRHKKEFLAEHGAEIAQHEAAKKAFDALNGKAIPKVAQLSAEYAALLEEKREQYEQYKTLRQDMITYQTALRNMDKILGLEPPEQAQEKEQTKPER | not soluble
MTQLCSDVRVSPLPGTAKVGDTYILFEHHGPWSHDILDGGTFDKETSAALKAMGCGFYLIRRHGREGRIERPKKTAYLVFGSAGIAEKLMVDDVTDLLKLDVSGPGKNRQFGAEQEAQPIILVCTHAKRDACCAIKGRPMAQALTEEFPDSPVWECSHTKGHRFAPSMVLMPWGYTWGQLNKPAAFDMYRYAQRGQLFLPGNRGRGIWPMKGQIAEVAVAQQLAQEGETVTLGQLRVESIEEAQAHVADSHTARTWTVFLREEVVAGIVDSCHKPPKTGTAWVADRVKENGA | not soluble
MSLSINIKAVTDDNRAAILDLHVSQNQLSYIESTKVCLEDAKECHYYKPVGLYYEGDLVGFAMYGLFPEYDEDNKNGRVWLDRFFIDERYQGKGLGKKMLKALIQHLAELYKCKRIYLSIFENNIHAIRLYQRFGFQFNGELDFNGEKVMVKELEGGSHHHHHH | soluble
MSHFLVEKLTKTVGDKTVFQDISFIIHDFDRIGIIGVNGTGKTTLLDVLSGRLGFDGDHSPFSKANDYKIAYLTQDPEFNDAASVLDTVLSADVKAIQLIRQYELLMANYTEDKQESLESLMSEMDRLDAWSIESDVKTVLSKLGITDLEQKVGDLSGGMRRRVQLAQVLLGAADLLLLDEPTNHLDIDTIAWLTTYLKTAKKTVLFITHDRYFLDHVATRIFELDKAGLTEYQGNYQDYVRLKAEQDERDAANLHKKKQLYKQELAWMRTQPQARATKQQARINRFSDLKKEVHQDSSADKLEMTFETSRIGKKVIHFEDLSFAYGDRQLIKDFNLIIQNKDRIGIVGDNGVGKSTLLNIINGDLKPTSGKLDIGDTIRVGYFSQQLKDMDETKRVINYLQEVADEVKTSVGTTSISELLEQFLFPRSSHGTLIAKLSGGEKKRLYLLKLLIEKPNVLLLDEPTNDLDIATLKVLENFLANFAGPVITVSHDRYFLDKVATKILAFEEGDIRVFYGNYSDYLDEKVFEKETVEADLAKTTVTEEVPLPQKEERKRMSYLEKQEWAQIEDKIATIEANIEEIENQMLTVVSDYGQLAQLQKELDQRNNDLLLAYERFEYLSGLDI | not soluble
MRCKRHTVDFSSSIGVCASCLRERLFTLAVSTAASENDDNDHRHSRISPPPLLFPRSVSPYVAPRKSDAGTGTGAGGRDSVASSNNRFFATPQVVVQSSSSEKVFESDRSFKKKKSGLSRFSSFFRTRSDDYDSRRDSCDASTVFSQPSSATTSRSWFSKVISVRSKKQSTTNTCYIEDLIASESDHHHHNQNRPRQRYCRGMSPAGDSTTNDESVEESPGRLRRTPVMGTPGRKKTATIGIGRSVSGMAFCLSPLVRAKPNCSSNWKAKFPPDFGYSGELKSPAKPHLSTAASFCGNRSKKLVDLGRVDHRR | soluble
MADSGTAGGAALAAPAPGPGSGGPGPRVYFQSPPGAAGEGPGGADDEGPVRRQGKVTVKYDRKELRKRLNLEEWILEQLTRLYDCQEEEIPELEIDVDELLDMESDDARAARVKELLVDCYKPTEAFISGLLDKIRGMQKLSTPQKK | soluble
MSLYAAYAGNLDARLMTRRAPHSPLRATGWLNGWRLTFGGEHMGWEGALATLVEDPISQVFVSLYDIAPMDEDSLDRWEGVGLDIYRRTRVRIHTLDGEEGAWTYVLNAYEGGLPSARYLGEIADAAESSGAPHDYVMELRKRPCLEHHHHHH | not soluble
MAHHHHHHMAARTDDPRLLSLFSAQREEDADIVIIGFPYDEGCVRNGGRAGAKKGPAAFRFFLQRLGSVNNLELNVDASHLKLYDAGDITASTLEEAHEKLESKVFTVLARGAFPFVIGGGNDQSAPNGRAMLRAFPGDVGVINVDSHLDVRPPLQDGRVHSGTPFRQLLEESSFSGKRFVEFACQGSQCGALHAQYVRDHQGHLMWLSEVRKKGAVAALEDAFGLTGKNTFFSFDVDSLKSSDMPGVSCPAAVGLSAQEAFDMCFLAGKTPTVMMMDMSELNPLVEEYRSPRVAVYMFYHFVLGFATRPKPKAEN | soluble
